Test results as given in patent US20110052599A1.

Molecular target: TrkB receptor expressed in mouse oocytes (mouse) (UniProt P15209)
Assay: cell-based or functional assay

- proportion of MII oocytes that developed into blastocyst-stage embryos: 5 fold
- proportion of MII oocytes that developed into two-cell stage embryos: 2 fold
- proportion of oocytes showing first polar body extrusion (MII-stage oocytes), 3 ng/ml BDNF with 5% FBS: > 2 fold
Substance: recombinant human BDNF (Pepro-Tech, Rocky Hill, N.J.) (from UniProt P23560 19-247) (ligand)
